# Results published in paper PMC7367873, “Dissecting the sequence determinants for dephosphorylation by the catalytic subunits of phosphatases PP1 and PP2A” (Nature Communications, 2020).
# Legend:
# [1] = tested on: GFP-14-3-3β and its binding proteins; experiment: GFP-14-3-3β co-IP with LC-MS/MS label-free quantification, untreated versus PP1c-treated; parameters: species or system human; settings: label-free quantification
# Description: (§1) HeLa Kyoto cells expressing transiently transfected pEGFP(C1)-14-3-3β or pEGFP(C1) control plasmid, were incubated with 20 nM Calyculin A (# 9902 S, Cell Signaling Technology) for 12 min. Cells were washed twice on ice with cold PBS and after addition of 500 µL lysis buffer (100 mM NaCl, 10 mM Tris, 0.1% IGEPAL, 1 mM EDTA, 1 mM EGTA, 20 nM Calyculin A, 1x cOmplete Mini protease inhibitor cocktail (Sigma), 1 mM DTT, 1 mM MnCl2) cells were scraped from plates, lysed by 10 pushes through an injection needle (21 G, BD) and the insoluble fraction was pelleted by centrifugation (10 min, 10^4 rcf, 4 °C). Supernatants were then subjected to incubation with 1 µM recombinant phosphatase or buffer for 1 h at 30 °C. Next, we subjected samples to immunoprecipitation using α-GFP nanobodies covalently coupled to agarose beads (2 h, 4 °C, obtained from the EMBL PEPcore Core Facility). Beads were then washed three times with lysis buffer and samples were eluted in 1x LDS sample buffer (Thermo Fisher Scientific) by heating to 70 °C for 10 min.
# (§2) The samples were then reduced with 25 mM dithiothreitol (10 min at 70 °C) and alkylated with 55 mM chloroacetamide (room temperature, 30 min, in the dark). Proteins were run on a precast 4–12% NuPAGE gel (ThermoFisher Scientific) for about 1 cm to concentrate the sample prior to in-gel tryptic digestion, which was performed according to the standard procedures. The peptides obtained were dried to completeness and resuspended in 12 µL of buffer A (0.1% FA), and 5 µL of sample were injected per MS measurement. The experiment was carried out in three independent replicates.
# (§3) The samples were analyzed by LC-MS/MS on a Dionex Ultimate 3000 nano-HPLC coupled online to a Fusion Lumos Tribrid mass spectrometer (Thermo Fisher Scientific). Peptides were delivered to a trap column (75 µm × 2 cm, packed in-house with 5 µm C18 resin; Reprosil PUR AQ, Dr. Maisch) and washed using 0.1% FA at a flow rate of 5 µL/min for 10 min. Subsequently, peptides were transferred to an analytical column (75 µm × 45 cm, packed in-house with 3 µm C18 resin; Reprosil Gold) applying a flow rate of 300 nL/min and separated using a 60 min linear gradient from 4% to 32% LC solvent B (0.1% FA, 5% DMSO in ACN) in LC solvent A (0.1% FA in 5% DMSO). The eluate from the analytical column was sprayed via a stainless steel emitter (Thermo Fisher Scientific) at a source voltage of 2.1 kV into the mass spectrometer. The transfer capillary was heated to 275 °C. The Fusion Lumos was operated in positive ionization mode and data-dependent acquisition (DDA), automatically switching between MS1 and MS2 spectrum acquisition. Full scan MS1 spectra were recorded in the Orbitrap from 360 to 1300 m/z at a resolution of 60k (automatic gain control (AGC) target value of 4e5 charges, maximum injection time (maxIT) of 50 ms). Up to 20 peptide precursors were isolated (isolation window, 1.7 m/z; maximum injection time, 25 ms; and AGC value, 1e5), fragmented by high-energy collision-induced dissociation (HCD) using 30% normalized collision energy (NCE), and analyzed at a resolution of 15k in the Orbitrap. Precursor ions that were singly charged, unassigned, or with charge states >6+ were excluded. The dynamic exclusion duration of fragmented precursor ions was 20 s.
# (§4) Peptide and protein identification and LFQ were performed using MaxQuant software (version 1.6.1.0)[64] by searching the data against all canonical protein sequences as annotated in the Swissprot reference database (human proteins only, 20193 entries, downloaded 22 March 2016, internally annotated with PFAM domains) using the embedded search engine Andromeda[65]. The MaxQuant search was performed using two variable modifications; oxidation of methionine and N-terminal protein acetylation. Carbamidomethylation on cysteines was specified as a fixed modification. Trypsin (Trypsin/P) was specified as the proteolytic enzyme with up to two allowed missed cleavage sites.
# GFP-14-3-3β = GFP-14-3-3β co-IP with LC-MS/MS, untreated GFP-14-3-3β versus GFP control (14-3-3 interactome); assay type: binding, human; settings: label-free quantification
# Description: as §1, §2, §3, §4
Molecule,"Difference (log2), PP1 vs untreated ([1]; PP1 vs untreated) [log2]","Difference (log2), PP1 vs untreated ([1]; log2 difference, pairwise comparison PP1 vs untreated, 3 replicates each)","Difference (log2), untreated vs GFP (GFP-14-3-3β; untreated vs GFP) [log2]","Difference (log2), untreated vs GFP (GFP-14-3-3β; log2 difference, pairwise comparison untreated vs GFP, 3 replicates each)"
"GNL3 (protein, UniProt Q9BVP2 1-549, looked up) Guanine nucleotide-binding …: MKRPKLKKASKRMTCHKRYKIQKKVREHHRKLRKEAKKRGHKKPRKDPGVPNSAPFKEALLREAELRKQRLEELKQQQKLDRQKELEKKRKLETNPDIKPSNVEPMEKEFGLCKTENKAKSGKQNSKKLYCQELKKVIEASDVVLEVLDARDPLGCRCPQVEEAIVQSGQKKLVLILNKSDLVPKENLESWLNYLKKELPTVVFRASTKPKDKGKITKRVKAKKNAAPFRSEVCFGKEGLWKLLGGFQETCSKAIRVGVIGFPNVGKSSIINSLKQEQMCNVGVSMGLTRSMQVVPLDKQITIIDSPSFIVSPLNSSSALALRSPASIEVVKPMEAASAILSQADARQVVLKYTVPGYRNSLEFFTVLAQRRGMHQKGGIPNVEGAAKLLWSEWTGASLAYYCHPPTSWTPPPYFNESIVVDMKSGFNLEELEKNNAQSIRAIKGPHLANSILFQSSGLTNGIIEEKDIHEELPKRKERKQEEREDDKDSDQETVDEEVDENSSGMFAAEETGEALSEETTAGEQSTRSFILDKIIEEDDAYDFSTDYV",1.1838,–,2.229,–
"ERLIN1 (protein, UniProt O75477 1-348, looked up) Erlin-1: MNMTQARVLVAAVVGLVAVLLYASIHKIEEGHLAVYYRGGALLTSPSGPGYHIMLPFITTFRSVQTTLQTDEVKNVPCGTSGGVMIYIDRIEVVNMLAPYAVFDIVRNYTADYDKTLIFNKIHHELNQFCSAHTLQEVYIELFDQIDENLKQALQKDLNLMAPGLTIQAVRVTKPKIPEAIRRNFELMEAEKTKLLIAAQKQKVVEKEAETERKKAVIEAEKIAQVAKIRFQQKVMEKETEKRISEIEDAAFLAREKAKADAEYYAAHKYATSNKHKLTPEYLELKKYQAIASNSKIYFGSNIPNMFVDSSCALKYSDIRTGRESSLPSKEALEPSGENVIQNKESTG",1.221,–,0.5977,–
"NCBP1 (protein, UniProt Q09161 1-790, looked up) Nuclear cap-binding protein …: MSRRRHSDENDGGQPHKRRKTSDANETEDHLESLICKVGEKSACSLESNLEGLAGVLEADLPNYKSKILRLLCTVARLLPEKLTIYTTLVGLLNARNYNFGGEFVEAMIRQLKESLKANNYNEAVYLVRFLSDLVNCHVIAAPSMVAMFENFVSVTQEEDVPQVRRDWYVYAFLSSLPWVGKELYEKKDAEMDRIFANTESYLKRRQKTHVPMLQVWTADKPHPQEEYLDCLWAQIQKLKKDRWQERHILRPYLAFDSILCEALQHNLPPFTPPPHTEDSVYPMPRVIFRMFDYTDDPEGPVMPGSHSVERFVIEENLHCIIKSHWKERKTCAAQLVSYPGKNKIPLNYHIVEVIFAELFQLPAPPHIDVMYTTLLIELCKLQPGSLPQVLAQATEMLYMRLDTMNTTCVDRFINWFSHHLSNFQFRWSWEDWSDCLSQDPESPKPKFVREVLEKCMRLSYHQRILDIVPPTFSALCPANPTCIYKYGDESSNSLPGHSVALCLAVAFKSKATNDEIFSILKDVPNPNQDDDDDEGFSFNPLKIEVFVQTLLHLAAKSFSHSFSALAKFHEVFKTLAESDEGKLHVLRVMFEVWRNHPQMIAVLVDKMIRTQIVDCAAVANWIFSSELSRDFTRLFVWEILHSTIRKMNKHVLKIQKELEEAKEKLARQHKRRSDDDDRSSDRKDGVLEEQIERLQEKVESAQSEQKNLFLVIFQRFIMILTEHLVRCETDGTSVLTPWYKNCIERLQQIFLQHHQIIQQYMVTLENLLFTAELDPHILAVFQQFCALQA",1.197,–,-0.001907,–
"FAM83B (protein, UniProt Q5T0W9 1-1011, looked up) Protein FAM83B: METSSMLSSLNDECKSDNYIEPHYKEWYRVAIDILIEHGLEAYQEFLVQERVSDFLAEEEINYILKNVQKVAQSTAHGTDDSCDDTLSSGTYWPVESDVEAPNLDLGWPYVMPGLLGGTHIDLLFHPPRAHLLTIKETIRKMIKEARKVIALVMDIFTDVDIFKEIVEASTRGVSVYILLDESNFNHFLNMTEKQGCSVQRLRNIRVRTVKGQDYLSKTGAKFHGKMEQKFLLVDCQKVMYGSYSYMWSFEKAHLSMVQIITGQLVESFDEEFRTLYARSCVPSSFAQEESARVKHGKALWENGTYQHSVSSLASVSSQRNLFGRQDKIHKLDSSYFKNRGIYTLNEHDKYNIRSHGYKPHFVPNFNGPNAIRQFQPNQINENWKRHSYAGEQPETVPYLLLNRALNRTNNPPGNWKKPSDSLSVASSSREGYVSHHNTPAQSFANRLAQRKTTNLADRNSNVRRSFNGTDNHIRFLQQRMPTLEHTTKSFLRNWRIESYLNDHSEATPDSNGSALGDRFEGYDNPENLKANALYTHSRLRSSLVFKPTLPEQKEVNSCTTGSSNSTIIGSQGSETPKEVPDTPTNVQHLTDKPLPESIPKLPLQSEAPKMHTLQVPENHSVALNQTTNGHTESNNYIYKTLGVNKQTENLKNQQTENLLKRRSFPLFDNSKANLDPGNSKHYVYSTLTRNRVRQPEKPKEDLLKSSKSMHNVTHNLEEDEEEVTKRNSPSGTTTKSVSIAALLDVNKEESNKELASKKEVKGSPSFLKKGSQKLRSLLSLTPDKKENLSKNKAPAFYRLCSSSDTLVSEGEENQKPKKSDTKVDSSPRRKHSSSSNSQGSIHKSKEDVTVSPSQEINAPPDENKRTPSPGPVESKFLERAGDASAPRFNTEQIQYRDSREINAVVTPERRPTSSPRPTSSELLRSHSTDRRVYSRFEPFCKIESSIQPTSNMPNTSINRPEIKSATMGNSYGRSSPLLNYNTGVYRSYQPNENKFRGFMQKFGNFIHKNK",1.224,–,-0.8224,–

# More lines, main results first:
"Difference (log2), PP1 vs untreated ([1]; PP1 vs untreated) [log2]","Difference (log2), PP1 vs untreated ([1]; log2 difference, pairwise comparison PP1 vs untreated, 3 replicates each)",Molecule,"Difference (log2), untreated vs GFP (GFP-14-3-3β; untreated vs GFP) [log2]","Difference (log2), untreated vs GFP (GFP-14-3-3β; log2 difference, pairwise comparison untreated vs GFP, 3 replicates each)"
1.211,–,"RBM3 (protein, UniProt P98179 1-157, looked up) RNA-binding protein 3: MSSEEGKLFVGGLNFNTDEQALEDHFSSFGPISEVVVVKDRETQRSRGFGFITFTNPEHASVAMRAMNGESLDGRQIRVDHAGKSARGTRGGGFGAHGRGRSYSRGGGDQGYGSGRYYDSRPGGYGYGYGRSRDYNGRNQGGYDRYSGGNYRDNYDN",0.8571,–
–,2.782,"PKP3 (protein, UniProt Q9Y446 1-797, looked up) Plakophilin-3: MQDGNFLLSALQPEAGVCSLALPSDLQLDRRGAEGPEAERLRAARVQEQVRARLLQLGQQPRHNGAAEPEPEAETARGTSRGQYHTLQAGFSSRSQGLSGDKTSGFRPIAKPAYSPASWSSRSAVDLSCSRRLSSAHNGGSAFGAAGYGGAQPTPPMPTRPVSFHERGGVGSRADYDTLSLRSLRLGPGGLDDRYSLVSEQLEPAATSTYRAFAYERQASSSSSRAGGLDWPEATEVSPSRTIRAPAVRTLQRFQSSHRSRGVGGAVPGAVLEPVARAPSVRSLSLSLADSGHLPDVHGFNSYGSHRTLQRLSSGFDDIDLPSAVKYLMASDPNLQVLGAAYIQHKCYSDAAAKKQARSLQAVPRLVKLFNHANQEVQRHATGAMRNLIYDNADNKLALVEENGIFELLRTLREQDDELRKNVTGILWNLSSSDHLKDRLARDTLEQLTDLVLSPLSGAGGPPLIQQNASEAEIFYNATGFLRNLSSASQATRQKMRECHGLVDALVTSINHALDAGKCEDKSVENAVCVLRNLSYRLYDEMPPSALQRLEGRGRRDLAGAPPGEVVGCFTPQSRRLRELPLAADALTFAEVSKDPKGLEWLWSPQIVGLYNRLLQRCELNRHTTEAAAGALQNITAGDRRWAGVLSRLALEQERILNPLLDRVRTADHHQLRSLTGLIRNLSRNARNKDEMSTKVVSHLIEKLPGSVGEKSPPAEVLVNIIAVLNNLVVASPIAARDLLYFDGLRKLIFIKKKRDSPDSEKSSRAASSLLANLWQYNKLHRDFRAKGYRKEDFLGP",–,-1.082
